Experimental data as given in US20210284709A1 (JUNO THERAPEUTICS, published 2021).

B1: TCR 10 (native, clonal T cell line) (TCR, V domains shown)
V domain 1: RKEVEQDPGPFNVPEGATVAFNCTYSNSASQSFFWYRQDCRKEPKLLMSVYSSGNEDGRFTAQLNRASQYISLLIRDSKLSDSATYLCVVNFPSRGAGGTSYGKLTFGQGTILTVHP
V domain 2: DVKVTQSSRYLVKRTGEKVFLECVQDMDHENMFWYRQDPGLGLRLIYFSYDVKMKEKGDIPEGYSVSREKKERFSLILESASTNQTSMYLCASSLSLTGNYGYTFGSGTRLTVVE
B2: modified version of TCR 8 (TCR, V domains shown)
V domain 1: KQEVTQIPAALSVPEGENLVLNCSFTDSAIYNLQWFRQDPGKGLTSLLLIQSSQREQTSGRLNASLDKSSGRSTLYIAASQPGDSATYLCAVRPLGNTPLVFGKGTRLSVIA
V domain 2: KVTQSSRYLVKRTGEKVFLECVQDMDHENMFWYRQDPGLGLRLIYFSYDVKMKEKGDIPEGYSVSREKKERFSLILESASTNQTSMYLCASSLWGASTDTQYFGPGTRLTVLE
B3: modified version of TCR 7 (TCR, V domains shown)
V domain 1: KNQVEQSPQSLIILEGKNCTLQCNYTVSPFSNLRWYKQDTGRGPVSLTIMTFSENTKSNGRYTATLDADTKQSSLHITASQLSDSASYICVVSRDNYGQNFVFGPGTRLSVLP
V domain 2: EPEVTQTPSHQVTQMGQEVILRCVPISNHLYFYWYRQILGQKVEFLVSFYNNEISEKSEIFDDQFSVERPDGSNFTLKIRSTKLEDSAMYFCAITDRTNYGYTFGSGTRLTVVE
B4: modified version of TCR 4 (TCR)
TCR alpha: DAKTTQPNSMESNEEEPVHLPCNHSTISGTDYIHWYRQLPSQGPEYVIHGLTSNVNNRMASLAIAEDRKSSTLILHRATLRDAAVYYCILLVIRGTSYGKLTFGQGTILTVHPNIQNPDPAVYQLRDSKSSDKSVCLFTDFDSQTNVSQSKDSDVYITDKCVLDMRSMDFKSNSAVAWSNKSDFACANAFNNSIIPEDTFFPSPESSCDVKLVEKSFETDTNLNFQNLSVIGFRILLLKVAGFNLLMTLRLWSS
TCR beta: DTGVSQDPRHKITKRGQNVTFRCDPISEHNRLYWYRQTLGQGPEFLTYFQNEAQLEKSRLLSDRFSAERPKGSFSTLEIQRTEQGDSAMYLCASSPGGGNTEAFFGQGTRLTVVEDLNKVFPPEVAVFEPSEAEISHTQKATLVCLATGFFPDHVELSWWVNGKEVHSGVCTDPQPLKEQPALNDSRYCLSSRLRVSATFWQNPRNHFRCQVQFYGLSENDEWTQDRAKPVTQIVSAEAWGRADCGFTSVSYQQGVLSATILYEILLGKATLYAVLVSALVLMAMVKRKDF
B5: modified version of TCR 9 (TCR)
TCR alpha: AQKITQTQPGMFVQEKEAVTLDCTYDTSDPSYGLFWYKQPSSGEMIFLIYQGSYDQQNATEGRYSLNFQKARKSANLVISASQLGDSAMYFCAMRTAGGTSYGKLTFGQGTILTVHPNIQNPDPAVYQLRDSKSSDKSVCLFTDFDSQTNVSQSKDSDVYITDKCVLDMRSMDFKSNSAVAWSNKSDFACANAFNNSIIPEDTFFPSPESSCDVKLVEKSFETDTNLNFQNLSVIGFRILLLKVAGFNLLMTLRLWSS
TCR beta: NAGVTQTPKFRVLKTGQSMTLLCAQDMNHEYMYWYRQDPGMGLRLIHYSVGEGTTAKGEVPDGYNVSRLKKQNFLLGLESAAPSQTSVYFCASSYFGTAYEQYFGPGTRLTVTEDLKNVFPPEVAVFEPSEAEISHTQKATLVCLATGFYPDHVELSWWVNGKEVHSGVCTDPQPLKEQPALNDSRYCLSSRLRVSATFWQNPRNHFRCQVQFYGLSENDEWTQDRAKPVTQIVSAEAWGRADCGFTSESYQQGVLSATILYEILLGKATLYAVLVSALVLMAMVKRKDSRG
B6: modified version of TCR 3 (TCR)
TCR alpha: AQKITQTQPGMFVQEKEAVTLDCTYDTSDQSYGLFWYKQPSSGEMIFLIYQGSYDEQNATEGRYSLNFQKARKSANLVISASQLGDSAMYFCAMREGRGFKTIFGAGTRLFVKANIQKPDPAVYQLRDSKSSDKSVCLFTDFDSQTNVSQSKDSDVYITDKCVLDMRSMDFKSNSAVAWSNKSDFACANAFNNSIIPADTFFPSPESSCDVKLVEKSFETDTNLNFQNLSVIGFRILLLKVAGFNLLMTLRLWSS
TCR beta: GAGVSQSPRYKVAKRGQDVALRCDPISGHVSLFWYQQALGQGPEFLTYFQNEAQLDKSGLPSDRFFAERPEGSVSTLKIQRTQQEDSAVYLCASSHLAGFTGELFFGEGSRLTVLEDLKNVFPPEVAVFEPSEAEISHTQKATLVCLATGFYPDHVELSWWVNGKEVHSGVCTDPQPLKEQPALNDSRYCLSSRLRVSATFWQNPRNHFRCQVQFYGLSENDEWTQDRAKPVTQIVSAEAWGRADCGFTSESYQQGVLSATILYEILLGKATLYAVLVSALVLMAMVKRKDSRG

What was measured:
[1] = molecular target: T1, HLA-A2/E6(29-38) tetramer (human; HPV 16); assay: tetramer staining of clonal T cell line vs control
T1 construct: also called E6(29-38) peptide-MHC tetramer; E6 tet

[2] = molecular target: T1, HLA-A2/E6(29-38) tetramer; assay: cell-based or functional assay
[3] = molecular target: HLA-A2/E7(11-19) tetramer (human; HPV 16); assay: cell-based or functional assay
[4] = molecular target: T1, HLA-A2/E6(29-38) tetramer; assay: flow cytometry, tetramer + anti-CD8; transfected Jurkat-derived cells, CD8+ cells
Experimental: For transfection, the CD4+ and CD4+/CD8+ cell mixtures were transiently transfected with TCR-encoding plasmids and 48 hours after transfection, cells were assessed by flow cytometry for (1) binding of the target peptide in the context of an MHC molecule (HLA:A02:01) by staining with an E6(29-38) peptide- or an E7(11-19) peptide-MHC tetramer reagent, and/or (2) CD8+ independent binding of the target by co-staining the tetramer-labeled cells with an anti-CD8 antibody.

Binder	binding result [1]	% CD8+/IC IFNγ+ [2]	% CD8+/IC IFNγ+ [3]	% cells E6 tet+/CD8+ quadrant [4]	% cells E6 tet+/CD8- quadrant [4]
B1	binds	–	–	–	–
B2	–	95%	11.4%	–	–
B3	–	70.5%	62.4%	–	–
B4	–	94.2%	2.5%	–	–
B5	–	91.1%	19.5%	42.5%	0.051%
B6	–	95.1%	2.51%	–	–
